# Results taken from the nanobody polyreactivity screen of Harvey et al. (2022).
# Assay: yeast display, Sf9 membrane polyspecificity reagent, FACS + sequencing; frameworks hold sequencing errors
# How it was run: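 A nanobody's polyreactivity label depends on the gate it was sorted from. Yeast display cells were stained with 10% biotinylated, detergent-solubilized Sf9 membrane reagent for 1 hour at 4 °C, enriched on streptavidin microbeads and sorted by FACS. The low and high (top ~1%) gates were set on anti-HA fluorescence for expression and streptavidin fluorescence for reagent binding.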
row,Sequence,polyreactivity (PSR sort gate)
1,QVQLVESGGGLVQAGGSLRLSCAASGSIFSSYAMGWYRQAPGKERELVAAISQSGGDTYYADSVKGRFTISRDIAKNTVYLQMNSLKPEDTAVYYCAACVWYYPMDYWGQGTQGTVSS,low polyreactivity
2,QVQLVESGGGLVQAGGSLSLSCAASGNTLYNYPMGSYRPAPGKERELVAAISLSGGSTYYADSVKGRFTISRDNAKNTVYLQMNSLKRVDTAVYYCDADIFYYSSSYGYWGQGTQVTVSS,low polyreactivity
3,QVQLVESGGGLVQAGGSLRLSCAASGFIFAYNAMGWYRQAPGKERELVAAISWSGGSTYYADSVKGRFTISRDNAKNTVFLQMNSLLPEDTAVYYCAARYRRNKYYYWGQGTQVTVSS,high polyreactivity
4,QVQLVESGGGLVQEGGSLRLSCAASGRIIERSAMGWYRQAPGKERELVAGISISGGGTYYADSVKGRFTISRDKAKNTVYLLMNCLKPEDTSVYYCAGTFPREEYGYWGQGTQVTVSW,low polyreactivity
5,QVQLVDSGGGLVQAGGSLRLSCAASGIIFWYYTRGWYRQAPGKERELVASISRGGSTYYADSVKGRFTISRDNAKNTVYLQMNSLKPEDTAVYYCARRPNTGPYGNYDYWGQGTQVTVSS,high polyreactivity
6,QVQLVESVGGLVQAGGSLRLSSAASGFTFTHYAMGWYRQAPGKERELVAAISTSGGSTYYADSVKGRFTISRDNAKNTVYLQMNSLKPEDTAVYYCAARRDGWVQWGYYYWGQGTQVTVSS,low polyreactivity
7,QGQLEDSGGGLVQAGGSLRLSCAASGLTYDHNAMGWYRNATGKEREFFAVISWRGTSTYYADSVKGRFTISRDNAKNTVFLQMHSLKPEDTAVYYCATRYYGDDVYRYDHWGQGTQVTVSS,high polyreactivity
8,QVQLVESGGGLVQAGGSLRLSCAASGRFFRYNAMGWYRQAPGKERELVAAIRYSGTSTYYADSVKGRFTISRDNAKNTVYFQMNSLKPEDTAVYYCAAYKRYYYGYDYWGQGTQVTVSS,high polyreactivity
9,QVQLVESGGGLVQAGGSLRLSCAASGSIFGSNAMGWYRQAPGKERELVAVITNGGRTYYADSVKGRFTISRDNAKNSVYLQMNSLNPEDTAVYYCAASRVYGWYGSYSTYGSWGQGTQVTVSS,high polyreactivity
10,QVQLVESGGGLVQAGGSLRLSCAASGRTFIYYAMGWYRQAPGKERELVAAISRSGGSTYYADSVKGRFTISRDNAKNTVYLQMNSLKPEDTAVYYCAAADPLGYEYDSWGQGTQVTVSS,high polyreactivity
11,QVHLVESGGGLVQAGGSLRLSCSASGRIFDNYVMGWYRQAPGKERELVAAISSGGGTYYADSVKGRFTISRDNAKNTVFLQMNSLKPEDTAVYYCAKRRVYDRSFGRYDYWGQGTQVTVSS,low polyreactivity
12,QVQLVESGGGLVQAGGSLRLSCAASGITSDQNAMGWYRQAPGKERELVAAISWSGGSTYYADSVKGRFTISRDNAKNTVYLQMNSLKPEDTAVYYCAADIYTAYYEFDYWGQGTQVTVSS,low polyreactivity
13,QVQLVESGGGLVQAGGSLRLSCAASGFIFYKYAMGWYRQAPGKERELVAAISRGGTTTYADSVKGRFTISRDNAKNTVYLQMNSLKPEDTAVYYCNKYFRYRYDYWGQGTQVTVSS,high polyreactivity
14,QVQLVESGGGLVQAGGSLRLSCAASGRIFRKYAMGWYIQAPGKEREFVASIRSRGDSTYYADSVKGRFTISRDNAKNTVYLQMNSMKPEDTAVYYCAAVSGSGYDYWGQGTQVTVSS,high polyreactivity
15,QVQLVESGGGLVQAGGSLRLSCAASGSIFRRNAMGWYRQAPGKERELVAGIRGSGGSTYYADSVKGRFTISRDNAKNTVYLQMNSLKPEDTAVYYSAARRSYYHGSYDYWGQGTQVTVSS,high polyreactivity
16,QVQLVESGGGLVQAGGSLRLSCAASGNTFGYYAMGWYRQAPGKERELVAAITSSGGRTYYADSVKGRFTISRDNAKNTVYLQMNSLKPEDTAVYYCAAGRVGARYPTYRFYYWGQGTQVTVSS,high polyreactivity
17,QVQLVESGGGLVQAGGSLRLSCAASGNTFYGYAMGWYRQAPGKERELVASITLSGDSTYYADSVKGRFTISRDNAKNTVYLQMNSLKPEDTAVYYCGGVYTYPLGYYHYTYDYWGQGPQVTVSS,low polyreactivity
18,QVQLVESGGGLVQAGGSLRLSCAASGRTFVRNTMGWYRQAPGKEREFVAAISRSGGNTNYADSVKGRFTISRDNAKNTVYLQMNSLKPEDTAVYYCATRAGYQVYPNKMNYWGQGTQVTVSS,high polyreactivity
19,QVQLVESGGGLVQAGCSLRITCAASGYTFYDYAMGWYRQAPRKERELVAAISSSGGSTYYAHSVKGRFTISRDTAKNTVYLQMISLKPEDTAVYYCDVRARRWRYNYWGQGTQVTVSS,high polyreactivity
20,QVQLVESGGGIVQAGGRLRLSCAASGSIFYYYAKGWYRQAPGTERELVASINSGVSTYYADSVKGRFTNSRDNAKNTVYLQMNSLKPVDTAVYYCAAPGHNLYGSWFSWTPDTYDYWGQGNQVTVSS,low polyreactivity
21,QVQLVESGGGLVQAGGSLRLSCAASGRIFKRYAMGWYRQAPGKERELVAAISKSGGSTYYADSVKGRFTISRDNAKNTVYLQMNSLKPEDTAVYYCNADPVRSGLDYWGQGTQVTVSS,high polyreactivity
22,QVQLVESGGGLVQAGGSLRLSCAASGFTFELYDMGWYRQAPGKERELVARITRSGGSTNYADSVKGRFTISRDNAKNTVYLQMNSLKPEDTAVYYCAAKSPLFGLTSYPGPDDSWGQGTQVTVSS,low polyreactivity

row,Sequence,polyreactivity (PSR sort gate)
1,QVQLVESGGGLVQAGGSLRISCAASGSIFYPYAMGWYRQAPGKERELVAGITYRAGSTYYADSVKGRFTISRDNAKNTVYLQMNSLKPEDTAVYYCAASESYAFDWGQGTQVTVSS,high polyreactivity
2,QVQLVESGGGLVQAGGSLRLRCAASGRTVVGTTMGWYRQAPGKEREVVAAISSGGRTYYADSVKGRFTISRDNAKNTVYLQMNSLIPVDTAVYYCAARRRGKVVPTSQFDYWGQGTQVTVSS,high polyreactivity
3,QVQLVESGGGLVQAGGSLRLSCAASGSTIRNYAMGWYRQAPGKERELVAAISSGGRTYYADSVKGRFTISRDNAKNTVYLQMNSLKPEDTAVYYCYTPYTVRGRYSYDYWGQGTQVTVSS,high polyreactivity
4,QVQLVESGGGLVQAGGSLRLSCAASGRTFILYAMGWYRQAPGKERELVAAITRRGGRTYYADSVKGRFTISRDNAKNTVYLQMNSLKPEDTAVYYCAADQYYYTQPSDMDYWGQGTQVTVSS,high polyreactivity
5,QVQLEDSGGGLVQAGGSLRLSCAASGFTFGVYAMGWYRQAPGKQRELVAAITSGGGRTYADSVKWRFTISRDNAKNTVYLQMNSLKPEDTAVYYCAAEGVPLRVVWDYSYWDYDYDYWGQGTQVTVSS,low polyreactivity
6,QVQLVESGGGLVQAGGSLRLSCAASGSIFRYYAMGWYRQAPGKERELVAAISSNGGSTYYADSVKGRFTISRDNAKNTVYLQMNSLKPEDTAVYYCNAVKVGPYYFRSDYWGQGTQVTVSS,high polyreactivity
7,QVKLVESGGGLVQAGGSLLLSCAASGRTFYRYAMGWYIQAPGKERELVARISSGGGTYYADSVKGRFTISRDNAKNTVYLQMNSLKPEVTAVYYCNADVYRWSGSYTGWDSWHDYWGQGTQVSVSS,low polyreactivity
8,QVQLVESGGGLVQAGCSRRLSCAASGSIFYHNAMGWYRQAPGKERELVAAISGRGGSTYYADSVKGRFTISRDNAKNTVYLQMNSLKPEDTAVYYCAADARYQNGGLYYWGQGPQVTVSS,high polyreactivity
9,QVQLVESGGGLVQAGGSLRLSCAASGFTFWRNAMGWYRQAPGKERELVAAISASGGSTYYADSVKGRFTISRDYAKNTVYLQKNSLKPEDTAVYYCAADTQGFYRYDYWGQGTQVTVSS,low polyreactivity
10,QVQLVESGGGLVQAGGSLRLSCAASGFNFQGNAMGWYIQAPGNERELVAAISSDGSTYYADSVKGRFTISRDNAKNTVELQMYSLKPEDTAVYYCAAEWWYYYPGYIITSYDYWGQGTQVTVSS,low polyreactivity
11,QVQLVESGGGLVQSGGSLRLSCAACGGTFYRYAMGWYRQAPGKERELVAAITSGSSTYYADSVKGRFTISRDNAKNTVYLQMNSLTPEDTAVYYCAAARYSRLSRTRPGKYGYWGQGTQVTVST,low polyreactivity
12,QVQLVESGGGLVQAGGSLRLSCAASGRIFYYYAMGWYRQAPGKERELVAAISSSGGSTYYADSVKGRYTISRDNAKNTVYLQMNSLKPEDTAVYYCNARTRYDMGYWGQGTQVTVSS,high polyreactivity
13,QVQLVESGGGLVQAGGSLRLSCASSGSTFRRNAMGWYRQAPGKERELVAAITWRGTSTYYADSVKGRFTISRDNAKNTVYLQMNSLKPEDTAVYYCNAVYNPYTTYSLSAYDYWGQGTQVTVSS,high polyreactivity
14,QVQLVESGGGLVQAGGSLRLSCAASGSTLPANAMGWYRQAPGKERELVAAITITTDGSTYYADSVKGRFTISRDNAKNTVYLQMNSLKAEDTAVYYCAVARYRYHIRKMGYWGQGTQVTVSS,low polyreactivity
15,QVQLVESGGGLVQAGGSLRLSCAASGLTFYGYGMGWYRPGPGKERELVASITSGGNTYYADSVKGRFTISRDNAKNNVYLQMYSLKPEDNAVSYCAVTAIALYYSSGYYWGQGTQVTVSS,low polyreactivity
16,QVQLVESGGGLVQAGGSLRLSCAASGRIFPSYAMVWYIQAPGKEREMVATISYRGTSTYYADSVKGRFTISRDNAKNTVYLQMNSLKPEDTGVYYCNKATRHHFYYWGQGTQVTVSS,high polyreactivity
17,QEQLQESGGGMVQVGGTLRLSCAATGTIFIYGFLGWNRQAPGKERELVASINLGGITNYADSVKGRFTISRDNAKNTVYLQMISLKPEDTAVYYCAAYLVTGQNYGYWGQGTQVTVSS,low polyreactivity
18,QVQLVESGGGLVQAGGSLRLIFAASGFIFETYAMGWYRQAPGKERELVAAISRGASTYYADSVKGRFTISRDNAKNTVYLQMNSLKPEDTAVYDCAAKRLSWHRYGYWGQGTQVTVSS,low polyreactivity
19,QVQLVESGGGLVQAGGSLRLSCAASGSTLEFNARGWYRQAPGKERELVAVINRSDGSTYYAASVKGRFTISRDNAKNTVYLQMNSLKPEDTAVYYCAADRHQVSVISTEDYWGQGTQVTVSS,low polyreactivity
20,QVQLVESGGGIVQAGVSLRLISAASGRIFRINAMGWYRQAPGKERDLVADITSGGSTNYADSVKGRFTISRDNAKITVYLQMNSLKPEDTAVYFCAPGYVTYRTRLDYWGQGTQVTVSS,low polyreactivity
21,QVQLVESGGGLVQAGGSLRLSCAASGSTFFSKAMGWSRQEPGKERELVAAISRSGATTSYADSVKGRFTISRDNAKNTVYLQMNSLKPEDTAVYYCAVGRRYYQDYDYSGQGTQVTVSS,high polyreactivity
